The record followed here is PMC12295313 (2025).

What is called Kd is the constant that tells how readily two partners part at equilibrium. Low readings indicate higher affinity, high ones lower affinity.

The target of assay [1] is T1, FGFR1c ectodomain (extracellular ligand-binding domain of FGFR1c), P11362.
T1 chain: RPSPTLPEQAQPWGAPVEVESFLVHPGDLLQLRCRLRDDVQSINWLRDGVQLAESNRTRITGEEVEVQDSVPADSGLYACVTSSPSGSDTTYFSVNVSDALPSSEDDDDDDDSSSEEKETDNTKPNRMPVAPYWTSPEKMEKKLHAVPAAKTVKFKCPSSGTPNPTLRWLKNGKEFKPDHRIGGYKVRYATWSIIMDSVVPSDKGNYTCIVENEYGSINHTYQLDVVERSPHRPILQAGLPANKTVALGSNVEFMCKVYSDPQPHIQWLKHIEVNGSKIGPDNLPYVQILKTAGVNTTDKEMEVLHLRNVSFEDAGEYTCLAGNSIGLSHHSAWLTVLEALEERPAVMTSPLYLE
As to the kind of experiment: SPR. The note with it: chains chain, remark: other sources report otherwise.

Assay [2] concerns the target T2, FGFR1c ectodomain (extracellular ligand-binding domain of FGFR1c) (UniProt P11362 22-376).
T2 chain: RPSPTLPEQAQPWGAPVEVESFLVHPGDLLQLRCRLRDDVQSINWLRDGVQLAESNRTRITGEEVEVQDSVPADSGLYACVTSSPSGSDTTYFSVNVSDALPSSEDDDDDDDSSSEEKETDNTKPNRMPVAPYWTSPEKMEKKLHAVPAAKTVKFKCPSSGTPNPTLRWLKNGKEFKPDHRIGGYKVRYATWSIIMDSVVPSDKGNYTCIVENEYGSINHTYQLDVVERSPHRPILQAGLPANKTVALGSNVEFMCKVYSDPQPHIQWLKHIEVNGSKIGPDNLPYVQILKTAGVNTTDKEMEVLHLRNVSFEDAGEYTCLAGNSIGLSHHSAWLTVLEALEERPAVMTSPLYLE
Briefly: SPR. In general terms: Surface plasmon resonance follows binding to a sensor surface in real time, without labels.

B1: Recombinant human wild-type FGF21 (His29-Ser209), Q9NSA1 29-209 (protein)
chain: HPIPDSSPLLQFGGQVRQRYLYTDDAQQTEAHLEIREDGTVGGAADQSPESLLQLKALKPGVIQILGVKTSRFLCQRPDGALYGSLHFDPEACSFRELLLEDGYNVYQSEAHGLPLHLPGNKSPHRDPAPRGPARFLPLPGLPPALPEPPGILAPQPPDVGSSDPLSMVGPSQGRSPSYAS
On to B1, for which the Kd in assay [1] stood at 7.96 µM.

B2: FGF21^D2D3 (FGF21 with its R96–V106 region replaced by the L101–T111 segment of FGF1) (ligand)
chain: HPIPDSSPLLQFGGQVRQRYLYTDDAQQTEAHLEIREDGTVGGAADQSPESLLQLKALKPGVIQILGVKTSRFLCQRPDGALYGSLHFDPEACSFLERLEENHYNTYQSEAHGLPLHLPGNKSPHRDPAPRGPARFLPLPGLPPALPEPPGILAPQPPDVGSSDPLSMVGPSQGRSPSYAS
With B2, the Kd in assay [2] came out at 3.94 µM.
